Measured values as given in patent publication US20120213794A1 (published 2012).

Tests used:
human PCSK9 = target: T1, human PCSK9 (human, UniProt Q8NBP7 31-692); assay: Biacore (SPR), IgG2 captured, PCSK9 as analyte
T1 construct: also called hPCSK9

Rhesus PCSK9 = target: T2, Rhesus PCSK9 (rhesus, UniProt A8T666 31-692, limits assumed); assay: Biacore (SPR), IgG2 captured, PCSK9 as analyte
T2 construct: also called rhPCSK9

Mouse PCSK9 = target: T3, Mouse PCSK9 (mouse, UniProt Q80W65 35-694, limits assumed); assay: Biacore (SPR), IgG2 format
T3 construct: Column head prints 'Mouse 9'; also called Mouse 9; mPCSK9
T3 sequence (Q80W65 35-694 limits assumed): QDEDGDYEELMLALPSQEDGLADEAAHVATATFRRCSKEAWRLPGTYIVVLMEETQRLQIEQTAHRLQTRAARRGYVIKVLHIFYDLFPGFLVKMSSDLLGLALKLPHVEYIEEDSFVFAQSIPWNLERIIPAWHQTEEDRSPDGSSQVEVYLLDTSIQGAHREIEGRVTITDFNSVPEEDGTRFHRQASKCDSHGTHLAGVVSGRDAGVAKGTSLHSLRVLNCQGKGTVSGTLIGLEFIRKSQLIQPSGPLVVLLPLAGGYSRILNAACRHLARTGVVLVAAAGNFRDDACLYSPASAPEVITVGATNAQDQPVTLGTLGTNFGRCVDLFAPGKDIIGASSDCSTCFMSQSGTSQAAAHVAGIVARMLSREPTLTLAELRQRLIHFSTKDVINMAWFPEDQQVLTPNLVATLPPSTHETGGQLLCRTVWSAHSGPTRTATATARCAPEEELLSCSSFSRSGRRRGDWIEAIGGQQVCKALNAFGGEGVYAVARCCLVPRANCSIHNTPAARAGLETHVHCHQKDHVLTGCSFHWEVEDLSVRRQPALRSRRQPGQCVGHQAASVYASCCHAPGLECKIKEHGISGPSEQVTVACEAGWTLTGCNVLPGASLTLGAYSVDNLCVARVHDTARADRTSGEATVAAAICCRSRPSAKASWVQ

T2 sequence (A8T666 31-692 limits assumed): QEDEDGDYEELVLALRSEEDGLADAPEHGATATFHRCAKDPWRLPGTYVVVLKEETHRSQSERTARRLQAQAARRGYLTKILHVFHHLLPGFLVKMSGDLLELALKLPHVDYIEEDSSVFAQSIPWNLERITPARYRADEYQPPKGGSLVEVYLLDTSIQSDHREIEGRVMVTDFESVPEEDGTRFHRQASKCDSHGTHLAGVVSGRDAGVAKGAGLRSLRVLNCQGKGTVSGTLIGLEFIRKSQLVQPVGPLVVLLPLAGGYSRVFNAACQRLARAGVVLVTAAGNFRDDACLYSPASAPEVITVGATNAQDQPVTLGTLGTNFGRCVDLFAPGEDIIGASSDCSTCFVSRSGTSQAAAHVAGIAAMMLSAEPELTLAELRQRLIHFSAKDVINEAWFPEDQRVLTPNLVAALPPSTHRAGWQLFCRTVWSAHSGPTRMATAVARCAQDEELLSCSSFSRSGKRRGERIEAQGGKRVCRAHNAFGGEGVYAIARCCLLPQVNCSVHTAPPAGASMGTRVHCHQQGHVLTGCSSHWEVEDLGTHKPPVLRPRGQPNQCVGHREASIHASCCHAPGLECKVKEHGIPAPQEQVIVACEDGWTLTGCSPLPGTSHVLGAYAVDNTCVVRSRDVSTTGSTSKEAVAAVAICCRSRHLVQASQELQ
T1 sequence (Q8NBP7 31-692 limits assumed): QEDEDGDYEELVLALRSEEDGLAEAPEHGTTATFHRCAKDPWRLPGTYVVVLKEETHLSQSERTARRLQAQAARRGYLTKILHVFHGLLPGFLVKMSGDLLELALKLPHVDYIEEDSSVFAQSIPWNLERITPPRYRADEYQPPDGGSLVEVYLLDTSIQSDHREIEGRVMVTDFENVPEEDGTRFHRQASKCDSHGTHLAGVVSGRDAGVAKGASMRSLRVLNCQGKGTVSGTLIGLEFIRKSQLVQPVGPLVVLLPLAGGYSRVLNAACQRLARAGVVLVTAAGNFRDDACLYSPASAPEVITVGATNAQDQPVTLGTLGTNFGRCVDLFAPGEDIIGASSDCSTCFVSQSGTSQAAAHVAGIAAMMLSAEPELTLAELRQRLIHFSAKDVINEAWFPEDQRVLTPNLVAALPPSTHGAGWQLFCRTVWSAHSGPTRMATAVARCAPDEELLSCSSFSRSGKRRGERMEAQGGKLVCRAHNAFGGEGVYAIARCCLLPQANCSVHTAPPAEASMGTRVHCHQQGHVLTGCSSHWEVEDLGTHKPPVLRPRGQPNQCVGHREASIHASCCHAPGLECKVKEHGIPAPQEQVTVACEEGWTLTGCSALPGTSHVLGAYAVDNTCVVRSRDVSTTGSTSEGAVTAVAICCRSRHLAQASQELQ

Kd (human PCSK9): 9.98 nM | Kd (Rhesus PCSK9): 10 nM | binding result (Mouse PCSK9): no binding
B1: AX137 IgG2 (antibody, V domains shown)
VH: EVQLLESGGGLVQPGGSLRLSCKASGYTFSSYGMYWVRQAPGKGLEWIGWIDPGSGGTKYNEKFKGKATISRDNSKNTLYLQMNSLRAEDTAVYYCARERYGYYFDYWGQGTLVTVSS
VL: EIVLTQSPATLSLSPGERATITCRASQYIGSYLNWYQQKPGQAPRLLIYDASNRATGIPARFSGSGSGTDFTLTISSLEPEDFAVYYCQAWDSSPPVVFGGGTKVEIK
